Test results from the supplement of paper PMC6757056.
± gives the standard deviation of the averaged measurements.

B1: library; a variant is named by its letters at N, in order (parent)
chain: GCUGUCACCGGAAUACCAGCAUCGUCUUGAUGCCCUUGGAAGUCCGGUCUGAUGAGUCCNNNNNGGACGAAACAGC

Experiments:
theophylline [1] = variants of: B1; experiment: FACS-Seq fitted mean relative fluorescence mCherry/BFP without ligand (log10 relative fluorescence); higher = higher reporter protein expression; details: HEK293T, ligand present: no
Method: (§1)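 Hammerhead (sTRSV) ribozyme switch libraries with a ligand aptamer grafted on stem I and a randomized N4-6 loop II, cloned into the 3' UTR of mCherry and transiently transfected into HEK293T cells; RNA-Seq 72 h post transfection with ligand added 1 h before transfection; RNA read count / plasmid DNA read count normalized to the non-cleaving sTRSVctl (x100), log10; sequences with >100 DNA reads. FACS-Seq: lentiviral library sorted into 6 bins after 48 h ligand, log-normal fit mean of mCherry/BFP scaled to controls. Printed sequences are partial switch sequences.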

theophylline [2] = variants of: B1; experiment: normalized RNA/DNA level with ligand (relative to sTRSVctl = 100) (log10 (% of sTRSVctl)); higher = less ribozyme self-cleavage, higher mRNA level; details: ligand concentration (+) RNA-Seq: 5 mM, HEK293T, reporter: mCherry (pCS4076), ligand present: yes
Method: as §1

theophylline [3] = variants of: B1; experiment: normalized RNA/DNA level without ligand (relative to sTRSVctl = 100) (log10 (% of sTRSVctl)); higher = less ribozyme self-cleavage, higher mRNA level; details: HEK293T, reporter: mCherry (pCS4076), ligand present: no
Method: as §1

theophylline [4] = variants of: B1; experiment: FACS-Seq fitted mean relative fluorescence mCherry/BFP with ligand (log10 relative fluorescence); ligand concentration (+) FACS-Seq: 1 mM; higher = higher reporter protein expression; details: HEK293T, ligand present: yes
Method: as §1

Variant | FACS-Seq fitted mean (log10) (theophylline [1]) | normalized RNA/DNA level with ligand (log10) (theophylline [2]) | normalized RNA/DNA level without ligand (log10) (theophylline [3]) | FACS-Seq fitted mean (log10) (theophylline [4])
ACGCA | 0.6839 ± 0.0046 | 1.99 ± 0.053 | 1.77 ± 0.03 | 0.824 ± 0.049
ACGCC | 1.08 ± 0.17 | 1.95 ± 0.074 | 1.94 ± 0.19 | 0.984 ± 0.017
CGCUA | 0.353 ± 0.072 | 1.87 ± 0.069 | 1.48 ± 0.041 | 0.612 ± 0.076
AAAGA | -0.192 ± 0.043 | 1.92 ± 0.08 | 1.32 ± 0.06 | 0.259 ± 0.0043
CCGGA | 0.978 ± 0.089 | 2.08 ± 0.027 | 1.9 ± 0.044 | 1.05 ± 0.15
UGCGA | 0.439 ± 0.02 | 1.9 ± 0.039 | 1.58 ± 0.06 | 0.659 ± 0.03
UGCGC | 0.574 ± 0.085 | 2.04 ± 0.035 | 1.96 ± 0.15 | 0.522 ± 0.1
CCGCU | 0.291 ± 0.035 | 2.09 ± 0.012 | 1.81 ± 0.024 | 0.381 ± 0.0062
ACACC | 0.952 ± 0.087 | 1.99 ± 0.12 | 2 ± 0.022 | 1.11 ± 0.06
ACACG | 1.12 ± 0.1 | 1.93 ± 0.024 | 1.8 ± 0.026 | 1.2 ± 0.07
UUAUU | 0.914 ± 0.092 | 1.96 ± 0.12 | 1.95 ± 0.11 | 0.942 ± 0.076
AAGAA | 0.0676 ± 0.046 | 1.94 ± 0.04 | 1.36 ± 0.025 | 0.545 ± 0.015
CUCCU | 0.814 ± 0.015 | 2.005 ± 0.011 | 1.88 ± 0.098 | 0.682 ± 0.033
CUCCC | 0.836 ± 0.04 | 2.05 ± 0.12 | 2 ± 0.14 | 0.811 ± 0.012
AUGUU | 0.847 ± 0.054 | 1.93 ± 0.068 | 1.87 ± 0.031 | 0.8299 ± 0.0036
CGUUU | 0.252 ± 0.084 | 2.06 ± 0.11 | 1.53 ± 0.077 | 0.945 ± 0.041
CAUUU | 0.805 ± 0.079 | 2.1059 ± 0.00056 | 1.74 ± 0.12 | 0.945 ± 0.13
CAUUA | 0.275 ± 0.06 | 1.851 ± 0.011 | 1.22 ± 0.14 | 0.761 ± 0.12
CAAGU | 0.759 ± 0.043 | 1.976 ± 0.016 | 1.94 ± 0.067 | 0.761 ± 0.14
ACCCU | 0.718 ± 0.011 | 2.023 ± 0.016 | 1.93 ± 0.091 | 0.587 ± 0.09
ACCCG | 0.917 ± 0.11 | 2 ± 0.012 | 1.94 ± 0.12 | 0.973 ± 0.031
UCGCU | 0.4314 ± 0.00049 | 2.03 ± 0.11 | 1.891 ± 0.0058 | 0.533 ± 0.055
ACUUU | 0.872 ± 0.15 | 2.012 ± 0.0039 | 1.89 ± 0.022 | 0.813 ± 0.11
AUAAG | 0.547 ± 0.16 | 1.97 ± 0.17 | 1.79 ± 0.082 | 0.578 ± 0.014

Variant | FACS-Seq fitted mean (log10) (theophylline [1]) | normalized RNA/DNA level with ligand (log10) (theophylline [2]) | normalized RNA/DNA level without ligand (log10) (theophylline [3]) | FACS-Seq fitted mean (log10) (theophylline [4])
UGCAC | 0.938 ± 0.039 | 2.04 ± 0.11 | 2.01 ± 0.022 | 0.991 ± 0.051
UAAGC | 1.08 ± 0.011 | 1.94 ± 0.059 | 1.92 ± 0.1 | 1.04 ± 0.073
AUGAA | 0.317 ± 0.045 | 1.94 ± 0.04 | 1.52 ± 0.074 | 0.5036 ± 0.0038
CUGAU | 1.02 ± 0.13 | 1.995 ± 0.013 | 1.7215 ± 0.00053 | 1.07 ± 0.082
AAACU | 0.552 ± 0.079 | 1.97 ± 0.093 | 1.79 ± 0.033 | 0.604 ± 0.0015
CAGCC | 0.864 ± 0.054 | 2 ± 0.035 | 1.97 ± 0.025 | 0.846 ± 0.13
CAGCU | 0.425 ± 0.0073 | 2.017 ± 0.019 | 1.75 ± 0.059 | 0.527 ± 0.0083
CUCUA | 0.786 ± 0.075 | 2.05 ± 0.018 | 1.78 ± 0.063 | 0.994 ± 0.09
CUCUC | 0.298 ± 0.1 | 2.03 ± 0.027 | 1.95 ± 0.045 | 0.448 ± 0.12
CCUCC | 0.993 ± 0.035 | 2.092 ± 0.0026 | 2.0411 ± 0.0014 | 0.89 ± 0.046
UGUGA | 0.563 ± 0.0013 | 2.05 ± 0.037 | 1.54 ± 0.11 | 0.837 ± 0.034
CGCAC | 0.436 ± 0.065 | 2.01 ± 0.17 | 1.9 ± 0.14 | 0.521 ± 0.017
GUAUU | 0.754 ± 0.04 | 2.01 ± 0.053 | 1.88 ± 0.046 | 0.8044 ± 0.005
GUUGU | 0.526 ± 0.054 | 1.93 ± 0.19 | 1.84 ± 0.058 | 0.701 ± 0.16
GAAGG | 0.991 ± 0.26 | 1.87 ± 0.011 | 1.72 ± 0.12 | 0.957 ± 0.057
GAGAA | 0.48 ± 0.017 | 1.91 ± 0.15 | 1.41 ± 0.11 | 0.7667 ± 0.00081
GUCUG | 0.742 ± 0.06 | 1.96 ± 0.074 | 1.87 ± 0.11 | 0.898 ± 0.069
UGGUC | 0.57045 ± 0.00034 | 1.984 ± 0.0062 | 1.95 ± 0.12 | 0.356 ± 0.084
UGGUG | 0.674 ± 0.065 | 2.04 ± 0.041 | 1.87 ± 0.1 | 0.661 ± 0.083
CCGUA | 0.864 ± 0.056 | 2 ± 0.099 | 1.65 ± 0.12 | 0.992 ± 0.043
CCGUC | 0.556 ± 0.018 | 2.11 ± 0.037 | 1.93 ± 0.073 | 0.413 ± 0.034
UGCUU | 0.84 ± 0.14 | 1.99 ± 0.079 | 1.95 ± 0.054 | 0.851 ± 0.037
AAAAC | 0.834 ± 0.057 | 1.944 ± 0.014 | 1.77 ± 0.066 | 0.873 ± 0.075
UCCUC | 0.414 ± 0.042 | 2.03 ± 0.022 | 2.022 ± 0.015 | 0.566 ± 0.064

Variant | FACS-Seq fitted mean (log10) (theophylline [1]) | normalized RNA/DNA level with ligand (log10) (theophylline [2]) | normalized RNA/DNA level without ligand (log10) (theophylline [3]) | FACS-Seq fitted mean (log10) (theophylline [4])
CGGAU | 0.215 ± 0.064 | 2 ± 0.11 | 1.65 ± 0.11 | 0.522 ± 0.046
CUAGA | 0.973 ± 0.064 | 1.96 ± 0.084 | 1.83 ± 0.04 | 0.9812 ± 0.0091
ACGGU | 0.778 ± 0.062 | 1.89 ± 0.13 | 1.7 ± 0.095 | 1.004 ± 0.0021
AAUAC | 0.997 ± 0.065 | 1.95 ± 0.045 | 1.85 ± 0.084 | 1.061 ± 0.0058
UUAAC | 0.885 ± 0.033 | 1.946 ± 0.0047 | 1.93 ± 0.042 | 0.858 ± 0.072
CUGUA | 0.501 ± 0.02 | 2.08 ± 0.067 | 1.61 ± 0.052 | 0.643 ± 0.013
UCUGU | 0.6475 ± 0.0019 | 2.099 ± 0.014 | 2.01 ± 0.1 | 0.6442 ± 0.0018
UCUGA | 0.9 ± 0.11 | 2.04 ± 0.035 | 1.89 ± 0.056 | 0.983 ± 0.1
UGAUG | 0.912 ± 0.0092 | 2.005 ± 0.00081 | 1.91 ± 0.14 | 0.848 ± 0.11
CCCUU | 1.13 ± 0.16 | 1.99 ± 0.035 | 1.89 ± 0.049 | 1.07 ± 0.036
UAGCA | 0.6175 ± 0.0054 | 1.95 ± 0.052 | 1.55 ± 0.091 | 0.757 ± 0.046
UACCG | 1.2 ± 0.1 | 2.01 ± 0.067 | 2 ± 0.032 | 1.09 ± 0.086
GAACU | 0.973 ± 0.11 | 2.033 ± 0.0061 | 1.83 ± 0.12 | 0.975 ± 0.024
ACCGC | 1.12 ± 0.047 | 2.06 ± 0.056 | 1.99 ± 0.03 | 1.1 ± 0.027
UGACG | 0.444 ± 0.13 | 1.977 ± 0.0053 | 1.89 ± 0.031 | 0.53 ± 0.076
UGACU | 1.21 ± 0.077 | 1.9948 ± 0.0009 | 1.87 ± 0.022 | 1.22 ± 0.12
AACGA | 0.235 ± 0.038 | 1.96 ± 0.1 | 1.53 ± 0.17 | 0.536 ± 0.026
AGGAA | 0.0559 ± 0.0084 | 1.85 ± 0.12 | 1.17 ± 0.079 | 0.552 ± 0.029
GACAA | 0.619 ± 0.048 | 1.938 ± 0.019 | 1.56 ± 0.022 | 0.731 ± 0.017
CCUGC | 0.976 ± 0.012 | 2.02 ± 0.034 | 2.09 ± 0.054 | 0.899 ± 0.054
AGUAA | 0.346 ± 0.083 | 1.89 ± 0.12 | 1.35 ± 0.13 | 0.781 ± 0.02
AAUGG | 0.773 ± 0.076 | 2.06 ± 0.078 | 1.73 ± 0.094 | 0.962 ± 0.016
UAAUG | 0.816 ± 0.076 | 1.929 ± 0.0084 | 1.814 ± 0.0095 | 0.887 ± 0.071
CUAAU | 0.912 ± 0.092 | 2.02 ± 0.015 | 1.7874 ± 0.001 | 0.979 ± 0.014
